These results are taken from patent US20140072613A1, “Compositions and Methods for Treating Cutaneous Scarring” (priority 2012, published 2014).

Common to all, as to assay: biochemical
What all share (assay type): biochemical

In test [1] the target is T1, 266 human kinases (Homo sapiens, UniProt O15111).
T1 sequence (O15111 1-745): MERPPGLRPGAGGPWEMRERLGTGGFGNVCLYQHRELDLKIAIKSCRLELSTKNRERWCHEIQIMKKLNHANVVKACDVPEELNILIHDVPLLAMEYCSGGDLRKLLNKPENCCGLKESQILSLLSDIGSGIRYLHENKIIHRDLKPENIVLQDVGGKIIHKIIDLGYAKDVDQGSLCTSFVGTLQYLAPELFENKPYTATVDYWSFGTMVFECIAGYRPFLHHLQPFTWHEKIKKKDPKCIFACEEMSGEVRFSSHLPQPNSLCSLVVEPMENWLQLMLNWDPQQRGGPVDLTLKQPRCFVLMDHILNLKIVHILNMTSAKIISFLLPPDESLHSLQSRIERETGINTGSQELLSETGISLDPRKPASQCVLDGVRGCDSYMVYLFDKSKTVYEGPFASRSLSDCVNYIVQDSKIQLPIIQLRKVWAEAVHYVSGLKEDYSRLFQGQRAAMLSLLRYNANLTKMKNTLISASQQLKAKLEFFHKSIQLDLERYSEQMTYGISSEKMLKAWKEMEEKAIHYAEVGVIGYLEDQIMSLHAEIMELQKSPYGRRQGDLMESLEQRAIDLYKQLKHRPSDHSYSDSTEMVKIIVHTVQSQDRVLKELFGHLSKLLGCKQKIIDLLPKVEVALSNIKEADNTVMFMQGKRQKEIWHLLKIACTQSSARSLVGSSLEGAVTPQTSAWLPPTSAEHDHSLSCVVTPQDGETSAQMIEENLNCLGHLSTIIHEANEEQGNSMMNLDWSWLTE
The conditions noted are these: IKKα(h); 100 μM. In short, it runs like this: (§1)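 Steps: kinase transfers radiolabelled phosphate from ATP onto a positively charged substrate; the substrate is trapped on a negatively charged filter; bound radioactivity is counted by scintillation and compared with uninhibited (100%) activity.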

The target in test [2] is 266 human kinases (Homo sapiens, UniProt P16234, D842V). The note with it: PDGFRα(D842V)(h); 100 μM. In short, it runs like this: as §1
Test [3] has as its target T2, 266 human kinases (Homo sapiens, UniProt P51817).
T2 sequence (P51817 1-358): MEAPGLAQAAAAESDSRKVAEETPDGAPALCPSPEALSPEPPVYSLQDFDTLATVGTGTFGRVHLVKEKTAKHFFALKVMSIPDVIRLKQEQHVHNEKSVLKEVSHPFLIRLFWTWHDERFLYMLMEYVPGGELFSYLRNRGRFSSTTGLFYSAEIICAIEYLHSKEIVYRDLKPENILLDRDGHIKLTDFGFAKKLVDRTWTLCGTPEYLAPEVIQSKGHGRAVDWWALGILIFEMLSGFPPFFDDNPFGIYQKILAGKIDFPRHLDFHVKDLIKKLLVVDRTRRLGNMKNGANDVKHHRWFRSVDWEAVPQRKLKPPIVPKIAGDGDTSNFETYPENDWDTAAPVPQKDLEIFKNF
The note with it: PrKX(h); 100 μM. The gist of the method: as §1

Test [4] has as its target T3, 266 human kinases (Homo sapiens, UniProt Q8IWQ3).
T3 sequence (Q8IWQ3 1-736): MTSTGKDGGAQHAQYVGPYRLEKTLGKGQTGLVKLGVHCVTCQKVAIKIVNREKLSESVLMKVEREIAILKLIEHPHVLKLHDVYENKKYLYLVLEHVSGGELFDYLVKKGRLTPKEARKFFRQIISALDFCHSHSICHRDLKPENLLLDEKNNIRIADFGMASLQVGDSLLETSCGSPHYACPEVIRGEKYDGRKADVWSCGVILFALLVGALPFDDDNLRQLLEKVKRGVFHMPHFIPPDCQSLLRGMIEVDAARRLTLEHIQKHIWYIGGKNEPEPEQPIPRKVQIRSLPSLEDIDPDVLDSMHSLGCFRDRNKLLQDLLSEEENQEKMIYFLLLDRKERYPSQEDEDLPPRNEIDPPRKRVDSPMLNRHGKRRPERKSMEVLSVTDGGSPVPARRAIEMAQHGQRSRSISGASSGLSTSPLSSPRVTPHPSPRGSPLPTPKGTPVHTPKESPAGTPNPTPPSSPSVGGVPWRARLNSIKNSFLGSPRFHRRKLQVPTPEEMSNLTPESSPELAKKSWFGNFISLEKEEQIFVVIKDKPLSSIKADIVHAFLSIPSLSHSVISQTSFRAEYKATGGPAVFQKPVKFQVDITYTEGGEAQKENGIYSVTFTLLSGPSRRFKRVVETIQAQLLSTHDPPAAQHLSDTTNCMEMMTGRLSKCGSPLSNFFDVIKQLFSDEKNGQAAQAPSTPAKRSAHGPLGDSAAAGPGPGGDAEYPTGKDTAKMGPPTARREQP
The note with it: BrSK2(h); 100 μM. The gist of the method: as §1

The target of test [5] is T4, 266 human kinases (Homo sapiens, UniProt Q9HBY8).
T4 sequence (Q9HBY8 whole entry, looked up): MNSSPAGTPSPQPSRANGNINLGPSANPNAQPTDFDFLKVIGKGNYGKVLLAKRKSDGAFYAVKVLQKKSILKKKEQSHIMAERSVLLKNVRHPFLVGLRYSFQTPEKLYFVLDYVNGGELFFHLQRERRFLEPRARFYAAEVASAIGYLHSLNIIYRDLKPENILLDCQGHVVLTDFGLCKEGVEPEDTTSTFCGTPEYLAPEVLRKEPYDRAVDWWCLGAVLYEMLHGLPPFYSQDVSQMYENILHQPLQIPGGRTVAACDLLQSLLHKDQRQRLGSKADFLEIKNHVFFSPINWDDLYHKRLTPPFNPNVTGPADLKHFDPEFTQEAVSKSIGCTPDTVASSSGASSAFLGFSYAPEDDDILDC
The conditions noted are these: SGK2(h); 100 μM. The gist of the method: as §1

266 human kinases (Homo sapiens, UniProt P16234, D842V), sequence (P16234 24-1089 D842V): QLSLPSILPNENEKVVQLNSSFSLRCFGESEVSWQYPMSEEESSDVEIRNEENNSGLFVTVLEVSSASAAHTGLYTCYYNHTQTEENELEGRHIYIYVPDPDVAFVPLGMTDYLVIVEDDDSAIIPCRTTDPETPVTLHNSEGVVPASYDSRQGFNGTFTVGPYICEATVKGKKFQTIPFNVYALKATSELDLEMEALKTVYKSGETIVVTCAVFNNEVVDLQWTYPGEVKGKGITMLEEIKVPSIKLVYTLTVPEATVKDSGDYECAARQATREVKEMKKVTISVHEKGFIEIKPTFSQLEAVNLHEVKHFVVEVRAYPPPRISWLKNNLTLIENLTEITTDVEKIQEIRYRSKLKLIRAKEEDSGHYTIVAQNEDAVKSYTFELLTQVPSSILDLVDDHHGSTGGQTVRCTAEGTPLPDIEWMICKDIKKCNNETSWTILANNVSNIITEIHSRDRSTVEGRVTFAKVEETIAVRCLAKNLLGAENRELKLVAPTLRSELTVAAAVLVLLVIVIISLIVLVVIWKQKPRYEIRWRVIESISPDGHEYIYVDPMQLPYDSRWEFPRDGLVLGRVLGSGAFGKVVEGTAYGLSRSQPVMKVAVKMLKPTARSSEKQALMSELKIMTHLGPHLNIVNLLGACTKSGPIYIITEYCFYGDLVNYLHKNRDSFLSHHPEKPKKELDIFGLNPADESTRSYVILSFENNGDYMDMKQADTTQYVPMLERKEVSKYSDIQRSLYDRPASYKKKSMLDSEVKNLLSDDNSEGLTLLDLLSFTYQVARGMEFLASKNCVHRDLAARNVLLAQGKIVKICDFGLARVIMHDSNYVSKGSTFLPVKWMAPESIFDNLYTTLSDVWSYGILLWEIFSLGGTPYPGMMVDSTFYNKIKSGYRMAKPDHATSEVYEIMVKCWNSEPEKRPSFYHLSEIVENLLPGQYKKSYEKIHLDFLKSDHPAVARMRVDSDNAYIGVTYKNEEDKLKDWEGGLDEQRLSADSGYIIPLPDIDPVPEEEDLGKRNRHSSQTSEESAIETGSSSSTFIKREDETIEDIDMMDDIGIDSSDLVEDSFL

Take “HRRIKAWLKKIKALARQLGVAA (mammal) [MMI-0500]”: the “% activity” value with 266 human kinases [1] is 50%; with 266 human kinases [2] it was 170%; in the test with 266 human kinases [3], 57%; with 266 human kinases [4], 84%; with 266 human kinases [5] it was −1%.
